Data on eleven molecules can be found in patent US20140271457A1 (AbbVie / Abbott, published 2014).

The chains are these.
B1: DVD2693 (bispecific antibody, IgG1)
VH: EVQLVESGGGLVQPGGSLRLSCAASGFTFSNYGVTWVRQAPGKGLEWVSMIWADGSTHYASSVKGRFTISRDNSKNTLYLQMNSLRAEDTAVYYCAREWQHGPVAYWGQGTLVTVSSGGGGSGGGGSEVQLVQSGAEVKKPGASVKVSCKASGYTFTKYWLGWVRQAPGQGLEWMGDIYPGYDYTHYNEKFKDRVTLTTDTSTSTAYMELRSLRSDDTAVYYCARSDGSSTYWGQGTLVTVSS
VL: DIQMTQSPSSLSASVGDRVTITCRASQLVSSAVAWYQQKPGKAPKLLIYWASARHTGVPSRFSGSGSGTDFTLTISSLQPEDFATYYCQQHYKTPFTFGQGTKLEIKRGGSGGGGSGDVLMTQTPLSLPVTPGEPASISCTSSQNIVHSNGNTYLEWYLQKPGQSPQLLIYKVSNRFSGVPDRFSGSGSGTDFTLKISRVEAEDVGVYYCFQVSHVPYTFGGGTKVEIKR
B2: DVD2698 (bispecific antibody, IgG1)
VH: EVQLVQSGAEVKKPGASVKVSCKASGYTFTKYWLGWVRQAPGQGLEWMGDIYPGYDYTHYNEKFKDRVTLTTDTSTSTAYMELRSLRSDDTAVYYCARSDGSSTYWGQGTLVTVSSGGGGSGGGGSEVQLVESGGGLVQPGGSLRLSCAASGFTFSNYGVTWVRQAPGKGLEWVSMIWADGSTHYASSVKGRFTISRDNSKNTLYLQMNSLRAEDTAVYYCAREWQHGPVAYWGQGTLVTVSS
VL: DVLMTQTPLSLPVTPGEPASISCTSSQNIVHSNGNTYLEWYLQKPGQSPQLLIYKVSNRFSGVPDRFSGSGSGTDFTLKISRVEAEDVGVYYCFQVSHVPYTFGGGTKVEIKRGGSGGGGSGDIQMTQSPSSLSASVGDRVTITCRASQLVSSAVAWYQQKPGKAPKLLIYWASARHTGVPSRFSGSGSGTDFTLTISSLQPEDFATYYCQQHYKTPFTFGQGTKLEIKR
B3: DVD3118 (bispecific antibody, IgG1)
VH: EVQLVQSGAEVKKPGASVKVSCKASGYTFTTYGVSWVRQAPGQGLEWMGEIYPGNYNTYYNEKFRGRVTMTTDTSTSTAYMELRSLRSDDTAVYYCARWRTSYFSDYGYFDYWGQGTTVTVSSGGGGSGGGGSEVQLVQSGAEVKKPGASVKVSCKASGYTFNNYGIIWVRQAPGQGLEWMGWINTYTGKPTYAQKFQGRVTMTTDTSTSTAYMELSSLRSEDTAVYYCARKLFNTVAVTDNAMDYWGQGTTVTVSS
VL: DVVMTQSPLSLPVTLGQPASISCRSSQSLVHSHGNTYLHWYQQRPGQSPRLLIYTVSNRFSGVPDRFSGSGSGTDFTLKISRVEAEDVGVYYCSQSTHVPYTFGGGTKVEIKRGGSGGGGSGDIQMTQSPSSLSASVGDRVTITCRASQDIENYLNWYQQKPGKAPKLLIYYTSRLQSGVPSRFSGSGSGTDFTLTISSLQPEDFATYFCQQGNTQPPTFGQGTKLEIKR
B4: DVD3119 (bispecific antibody, IgG1)
VH: EVQLVQSGAEVKKPGASVKVSCKASGYTFTTYGVSWVRQAPGQGLEWMGEIYPGNYNTYYNEKFRGRVTMTTDTSTSTAYMELRSLRSDDTAVYYCARWRTSYFSDYGYFDYWGQGTTVTVSSASTKGPEVQLVQSGAEVKKPGASVKVSCKASGYTFNNYGIIWVRQAPGQGLEWMGWINTYTGKPTYAQKFQGRVTMTTDTSTSTAYMELSSLRSEDTAVYYCARKLFNTVAVTDNAMDYWGQGTTVTVSS
VL: DVVMTQSPLSLPVTLGQPASISCRSSQSLVHSHGNTYLHWYQQRPGQSPRLLIYTVSNRFSGVPDRFSGSGSGTDFTLKISRVEAEDVGVYYCSQSTHVPYTFGGGTKVEIKRTVAAPDIQMTQSPSSLSASVGDRVTITCRASQDIENYLNWYQQKPGKAPKLLIYYTSRLQSGVPSRFSGSGSGTDFTLTISSLQPEDFATYFCQQGNTQPPTFGQGTKLEIKR
B5: DVD3121 (bispecific antibody, IgG1)
VH: EVQLVQSGAEVKKPGASVKVSCKASGYTFTTYGVSWVRQAPGQGLEWMGEIYPGNYNTYYNEKFRGRVTMTTDTSTSTAYMELRSLRSDDTAVYYCARWRTSYFSDYGYFDYWGQGTTVTVSSASTKGPEVQLVQSGAEVKKPGASVKVSCKASGYTFNNYGIIWVRQAPGQGLEWMGWINTYTGKPTYAQKFQGRVTMTTDTSTSTAYMELSSLRSEDTAVYYCARKLFNTVAVTDNAMDYWGQGTTVTVSS
VL: DVVMTQSPLSLPVTLGQPASISCRSSQSLVHSHGNTYLHWYQQRPGQSPRLLIYTVSNRFSGVPDRFSGSGSGTDFTLKISRVEAEDVGVYYCSQSTHVPYTFGGGTKVEIKRTVAAPSVFIFPPDIQMTQSPSSLSASVGDRVTITCRASQDIENYLNWYQQKPGKAPKLLIYYTSRLQSGVPSRFSGSGSGTDFTLTISSLQPEDFATYFCQQGNTQPPTFGQGTKLEIKR
B6: DVD3122 (bispecific antibody, IgG1)
VH: EVQLVQSGAEVKKPGASVKVSCKASGYTFTTYGVSWVRQAPGQGLEWMGEIYPGNYNTYYNEKFRGRVTMTTDTSTSTAYMELRSLRSDDTAVYYCARWRTSYFSDYGYFDYWGQGTTVTVSSASTKGPSVFPLAPEVQLVQSGAEVKKPGASVKVSCKASGYTFNNYGIIWVRQAPGQGLEWMGWINTYTGKPTYAQKFQGRVTMTTDTSTSTAYMELSSLRSEDTAVYYCARKLFNTVAVTDNAMDYWGQGTTVTVSS
VL: DVVMTQSPLSLPVTLGQPASISCRSSQSLVHSHGNTYLHWYQQRPGQSPRLLIYTVSNRFSGVPDRFSGSGSGTDFTLKISRVEAEDVGVYYCSQSTHVPYTFGGGTKVEIKRTVAAPDIQMTQSPSSLSASVGDRVTITCRASQDIENYLNWYQQKPGKAPKLLIYYTSRLQSGVPSRFSGSGSGTDFTLTISSLQPEDFATYFCQQGNTQPPTFGQGTKLEIKR
B7: DVD3167 (bispecific antibody, IgG1)
VH: EVQLVQSGAEVKKPGASVKVSCKASGYTFANYGIIWVRQAPGQGLEWMGWINTYTGKPTYAQKFQGRVTMTTDTSTSTAYMELSSLRSEDTAVYYCARKLFTTMDVTDNAMDYWGQGTTVTVSSASTKGPSVFPLAPEVQLVQSGAEVKKPGASVKVSCKASGYTFTSYWMHWVRQAPGQGLEWIGNINPKGGSNIYNEKFQGRVTMTRDTSISTAYMELSRLRSDDTAVYYCARLDYFGDSFDLWGQGTTVTVSS
VL: DIQMTQSPSSLSASVGDRVTITCRASQDISQYLNWYQQKPGKAPKLLIYYTSRLQSGVPSRFSGSGSGTDFTLTISSLQPEDFATYFCQQGNTWPPTFGQGTKLEIKRTVAAPDIQMTQSPSSLSASVGDRVTITCRASQGIRNYLNWYQQKPGKAPKLLIYYASNLEVGVPSRFSGSGSGTDYTLTISSLQPEDFATYYCQQDNRFPYTFGGGTKVEIKR
B8: DVD3177 (bispecific antibody, IgG1)
VH: EVQLVQSGAEVKKPGASVKVSCKASGYTFNNYGIIWVRQAPGQGLEWMGWINTYTGKPTYAQKFQGRVTMTTDTSTSTAYMELSSLRSEDTAVYYCARKLFNTVAVTDNAMDYWGQGTTVTVSSASTKGPSVFPLAPEVQLVQSGAEVKKPGASVKVSCKASGYTFTSYWMHWVRQAPGQGLEWIGNINPKGGSNIYNEKFQGRVTMTRDTSISTAYMELSRLRSDDTAVYYCARLDYFGDSFDLWGQGTTVTVSS
VL: DIQMTQSPSSLSASVGDRVTITCRASQDIENYLNWYQQKPGKAPKLLIYYTSRLQSGVPSRFSGSGSGTDFTLTISSLQPEDFATYFCQQGNTQPPTFGQGTKLEIKRTVAAPDIQMTQSPSSLSASVGDRVTITCRASQGIRNYLNWYQQKPGKAPKLLIYYASNLEVGVPSRFSGSGSGTDYTLTISSLQPEDFATYYCQQDNRFPYTFGGGTKVEIKR
B9: DVD2694 (bispecific antibody, IgG1)
VH: EVQLVESGGGLVQPGGSLRLSCAASGFTFSNYGVTWVRQAPGKGLEWVSMIWADGSTHYASSVKGRFTISRDNSKNTLYLQMNSLRAEDTAVYYCAREWQHGPVAYWGQGTLVTVSSASTKGPEVQLVQSGAEVKKPGASVKVSCKASGYTFTKYWLGWVRQAPGQGLEWMGDIYPGYDYTHYNEKFKDRVTLTTDTSTSTAYMELRSLRSDDTAVYYCARSDGSSTYWGQGTLVTVSS
VL: DIQMTQSPSSLSASVGDRVTITCRASQLVSSAVAWYQQKPGKAPKLLIYWASARHTGVPSRFSGSGSGTDFTLTISSLQPEDFATYYCQQHYKTPFTFGQGTKLEIKRTVAAPDVLMTQTPLSLPVTPGEPASISCTSSQNIVHSNGNTYLEWYLQKPGQSPQLLIYKVSNRFSGVPDRFSGSGSGTDFTLKISRVEAEDVGVYYCFQVSHVPYTFGGGTKVEIKR
B10: DVD2699 (bispecific antibody, IgG1)
VH: EVQLVQSGAEVKKPGASVKVSCKASGYTFTKYWLGWVRQAPGQGLEWMGDIYPGYDYTHYNEKFKDRVTLTTDTSTSTAYMELRSLRSDDTAVYYCARSDGSSTYWGQGTLVTVSSASTKGPEVQLVESGGGLVQPGGSLRLSCAASGFTFSNYGVTWVRQAPGKGLEWVSMIWADGSTHYASSVKGRFTISRDNSKNTLYLQMNSLRAEDTAVYYCAREWQHGPVAYWGQGTLVTVSS
VL: DVLMTQTPLSLPVTPGEPASISCTSSQNIVHSNGNTYLEWYLQKPGQSPQLLIYKVSNRFSGVPDRFSGSGSGTDFTLKISRVEAEDVGVYYCFQVSHVPYTFGGGTKVEIKRTVAAPDIQMTQSPSSLSASVGDRVTITCRASQLVSSAVAWYQQKPGKAPKLLIYWASARHTGVPSRFSGSGSGTDFTLTISSLQPEDFATYYCQQHYKTPFTFGQGTKLEIKR
B11: DVD2701 (bispecific antibody, IgG1)
VH: EVQLVQSGAEVKKPGASVKVSCKASGYTFTKYWLGWVRQAPGQGLEWMGDIYPGYDYTHYNEKFKDRVTLTTDTSTSTAYMELRSLRSDDTAVYYCARSDGSSTYWGQGTLVTVSSASTKGPEVQLVESGGGLVQPGGSLRLSCAASGFTFSNYGVTWVRQAPGKGLEWVSMIWADGSTHYASSVKGRFTISRDNSKNTLYLQMNSLRAEDTAVYYCAREWQHGPVAYWGQGTLVTVSS
VL: DVLMTQTPLSLPVTPGEPASISCTSSQNIVHSNGNTYLEWYLQKPGQSPQLLIYKVSNRFSGVPDRFSGSGSGTDFTLKISRVEAEDVGVYYCFQVSHVPYTFGGGTKVEIKRTVAAPSVFIFPPDIQMTQSPSSLSASVGDRVTITCRASQLVSSAVAWYQQKPGKAPKLLIYWASARHTGVPSRFSGSGSGTDFTLTISSLQPEDFATYYCQQHYKTPFTFGQGTKLEIKR

The target of this experiment is Recombinant Human TNF-α/TNFSF1A (human, UniProt P01375 77-233). Kind of experiment: cell-based or functional assay.
Sequence of Recombinant Human TNF-α/TNFSF1A (P01375 77-233 limits assumed): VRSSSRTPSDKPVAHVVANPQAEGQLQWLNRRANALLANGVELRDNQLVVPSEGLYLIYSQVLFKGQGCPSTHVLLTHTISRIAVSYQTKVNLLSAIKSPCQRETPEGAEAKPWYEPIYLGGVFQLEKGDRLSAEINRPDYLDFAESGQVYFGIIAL
Regarding B1, the “N-Terminal VD huTNFα Neutralization Assay IC50” value is 0.001 nM.
Regarding B2, the “C-Terminal VD huTNFα Neutralization Assay IC50” value turned out to be 0.085 nM.
The same measure, in the same setting: the value for B3 was 0.065 nM.
B4: the “C-Terminal VD huTNFα Neutralization Assay IC50” value came out at 0.163 nM.
The same measure, in the same setting: the value for B5 was 0.036 nM.
As to B6, the “C-Terminal VD huTNFα Neutralization Assay IC50” value came to 0.018 nM.
With B7, the “N-Terminal VD huTNFα Neutralization Assay IC50” value is 0.018 nM.
The same measure, in the same setting: the value for B8 was 0.022 nM.
Still for that read-out and setting: the value for B9 was 0.001 nM.
For the molecule B10, the “C-Terminal VD huTNFα Neutralization Assay IC50” value was 0.064 nM.
B11: the “C-Terminal VD huTNFα Neutralization Assay IC50” value was found to be 0.036 nM.
